Molecular target: Hepatocyte Growth Factor (HGF) (UniProt P14210 32-728)
Experiment: ELISA

Hepatocyte Growth Factor (HGF), sequence (P14210 32-728): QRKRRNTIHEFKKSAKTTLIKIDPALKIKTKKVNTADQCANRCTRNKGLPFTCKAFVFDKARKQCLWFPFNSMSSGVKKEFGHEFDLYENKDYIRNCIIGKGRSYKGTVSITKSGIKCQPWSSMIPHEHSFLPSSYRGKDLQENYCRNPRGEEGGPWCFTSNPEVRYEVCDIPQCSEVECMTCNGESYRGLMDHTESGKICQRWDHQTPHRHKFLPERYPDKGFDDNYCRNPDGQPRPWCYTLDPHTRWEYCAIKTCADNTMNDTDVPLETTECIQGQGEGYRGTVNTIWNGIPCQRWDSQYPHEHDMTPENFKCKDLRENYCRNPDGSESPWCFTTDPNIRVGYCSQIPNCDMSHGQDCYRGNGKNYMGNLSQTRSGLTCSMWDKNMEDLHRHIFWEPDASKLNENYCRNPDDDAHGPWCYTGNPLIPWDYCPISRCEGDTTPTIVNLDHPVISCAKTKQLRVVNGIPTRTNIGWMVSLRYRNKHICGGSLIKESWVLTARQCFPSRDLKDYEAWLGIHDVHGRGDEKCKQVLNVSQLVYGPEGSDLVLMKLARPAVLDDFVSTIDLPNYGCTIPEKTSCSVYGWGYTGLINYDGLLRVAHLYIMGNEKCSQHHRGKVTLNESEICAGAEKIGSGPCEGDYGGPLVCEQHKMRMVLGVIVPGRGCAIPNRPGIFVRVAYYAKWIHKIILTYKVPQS

- Kd: 0.251 nM
B1: decoyMET^K842E (receptor)
chain: ECKEALAKSEMNVNMKYQLPNFTAETPIQNVILHEHHIFLGATNYIYVLNEEDLQKVAEYKTGPVLEHPDCFPCQDCSSKANLSGGVWKDNINMALVVDTYYDDQLISCGSVNRGTCQRHVFPHNHTADIQSEVHCIFSPQIEEPSQCPDCVVSALGAKVLSSVKDRFINFFVGNTINSSYFPDHPLHSISVRRLKETKDGFMFLTDQSYIDVLPEFRDSYPIKYVHAFESNNFIYFLTVQRETLDAQTFHTRIIRFCSINSGLHSYMEMPLECILTEKRKKRSTKKEVFNILQAAYVSKPGAQLARQIGASLNDDILFGVFAQSKPDSAEPMDRSAMCAFPIKYVNDFFNKIVNKNNVRCLQHFYGPNHEHCFNRTLLRNSSGCEARRDEYRTEFTTALQRVDLFMGQFSEVLLTSISTFIKGDLTIANLGTSEGRFMQVVVSRSGPSTPHVNFLLDSHPVSPEVIVEHTLNQNGYTLVITGKKITKIPLNGLGCRHFQSCSQCLSAPPFVQCGWCHDKCVRSEECLSGTWTQQICLPAIYKVFPNSAPLEGGTRLTICGWDFGFRRNNKFDLKKTRVLLGNESCTLTLSESTMNTLKCTVGPAMNKHFNMSIIISNGHGTTQYSTFSYVDPVITSISPKYGPMAGGTLLTLTGNYLNSGNSRHISIGGKTCTLKSVSNSILECYTPAQTISTEFAVKLKIDLANRETSIFSYREDPIVYEIHPTKSFISGGSTITGVGKNLNSVSVPRMVINVHEAGRNFTVACQHRSNSEIICCTTPSLQQLNLQLPLKTKAFFMLDGILSKYFDLIYVHNPVFEPFEKPVMISMGNENVLEIKGNDIDPEAVKGEVLKVGNKSCENIHLHSEAVLCTVPNDLLKLNSELNIEWKQAISSTVLGKVIVQPDQNFTASGAAWSHPQFEKGAAWSHPQFEKGAAWSHPQFEKGAAHHHHHH
